For this assay, the target named is extracellular matrix (BD Matrigel). In words: ECL on Matrigel-coated plate, relative to MRAH-G1d/MRAL-k0.

B1: TR01H113-E2702GsKsc/GCH065-E2704sEpsc/L0011-k0 (bispecific antibody, human IgG4 S228P, kappa, N297A)
heavy 1: QVQLVESGGGVVQPGGSLRLSCAASGFTFSNAWMHWVRQAPGKGLEWVAQIKDKSQNYATYVAESVKGRFTISRADSKNSIYLQMNSLKTEDTAVYYCRYVHYAAGYGVDIWGQGTTVTVSSASTKGPSVFPLAPCSRSTSESTAALGCLVKDYFPEPVTVSWNSGALTSGVHTFPAVLQSSGLYSLSSVVTVPSSSLGTKTYTCNVDHKPSNTKVDKRVESKYGPPCPPCPAPEFRGGPKVFLFPPKPKDTLMISRTPEVTCVVVDVSQEDPEVQFNWYVDGVEVHNAKTKPREEQFASTYRVVSVLTVLHQDWLNGKEYKCKVSNKGLPSSIEKTISKAKGQPREPQVYTLPPSQKEMTKNQVSLTCLVKGFYPSDIAVEWESNGQPENNYKTTPPVLDSDGSFFLYSKLTVDKSRWQEGNVFSCSVMHEALHNRYTQKSLSLSP
heavy 2: QVQLVQSGAEVKKPGASVTVSCKASGYTFTDYEMHWIRQPPGEGLEWIGAIDGPTPDTAYSEKFKGRVTLTADKSTSTAYMELSSLTSEDTAVYYCTRFYSYTYWGQGTLVTVSSASTKGPSVFPLAPCSRSTSESTAALGCLVKDYFPEPVTVSWNSGALTSGVHTFPAVLQSSGLYSLSSVVTVPSSSLGTQTYTCNVDHKPSNTKVDKRVESKYGPPCPPCPAPEFRGGPKVFLFPPKPKDTLMISRTPEVTCVVVDVSQEDPEVQFNWYVDGVEVHNAKTKPREEQFASTYRVVSVLTVLHQDWLNGKEYKCKVSNKGLPSSIEKTISKAKGQPREPQVYTLPPSQEEMTKNQVSLTCLVKGFYPSDIAVEWESNGQPENNYKTTPPVLDSDGSFFLYSKLTVDKSRWQEGNVFSCSVMHEALHNHYTQESLSLSP
light: DIVMTQSPLSLPVTPGEPASISCRSSQPLVHSNRNTYLHWYQQKPGQAPRLLIYKVSNRFSGVPDRFSGSGSGTDFTLKISRVEAEDVGVYYCGQGTQVPYTFGQGTKLEIKRTVAAPSVFIFPPSDEQLKSGTASVVCLLNNFYPREAKVQWKVDNALQSGNSQESVTEQDSKDSTYSLSSTLTLSKADYEKHKVYACEVTHQGLSSPVTKSFNRGEC
For the molecule B1, the ECM binding ratio (standard = 1) was 2.5.

B2: TR01H113-E2702GsKsc/GCH094-E2704sEpsc/L0011-k0 (bispecific antibody, human IgG4 S228P, kappa, N297A)
heavy 1: QVQLVESGGGVVQPGGSLRLSCAASGFTFSNAWMHWVRQAPGKGLEWVAQIKDKSQNYATYVAESVKGRFTISRADSKNSIYLQMNSLKTEDTAVYYCRYVHYAAGYGVDIWGQGTTVTVSSASTKGPSVFPLAPCSRSTSESTAALGCLVKDYFPEPVTVSWNSGALTSGVHTFPAVLQSSGLYSLSSVVTVPSSSLGTKTYTCNVDHKPSNTKVDKRVESKYGPPCPPCPAPEFRGGPKVFLFPPKPKDTLMISRTPEVTCVVVDVSQEDPEVQFNWYVDGVEVHNAKTKPREEQFASTYRVVSVLTVLHQDWLNGKEYKCKVSNKGLPSSIEKTISKAKGQPREPQVYTLPPSQKEMTKNQVSLTCLVKGFYPSDIAVEWESNGQPENNYKTTPPVLDSDGSFFLYSKLTVDKSRWQEGNVFSCSVMHEALHNRYTQKSLSLSP
heavy 2: QVQLVQSGAEVKKPGASVTVSCKASGYTFTDYEMHWVRQAPGEGLEWMGAIDGETPDTAYSEKFKGRVTLTADKSTSTAYMELSSLTSEDTAVYYCTRFYSYTYWGQGTLVTVSSASTKGPSVFPLAPCSRSTSESTAALGCLVKDYFPEPVTVSWNSGALTSGVHTFPAVLQSSGLYSLSSVVTVPSSSLGTQTYTCNVDHKPSNTKVDKRVESKYGPPCPPCPAPEFRGGPKVFLFPPKPKDTLMISRTPEVTCVVVDVSQEDPEVQFNWYVDGVEVHNAKTKPREEQFASTYRVVSVLTVLHQDWLNGKEYKCKVSNKGLPSSIEKTISKAKGQPREPQVYTLPPSQEEMTKNQVSLTCLVKGFYPSDIAVEWESNGQPENNYKTTPPVLDSDGSFFLYSKLTVDKSRWQEGNVFSCSVMHEALHNHYTQESLSLSP
light: DIVMTQSPLSLPVTPGEPASISCRSSQPLVHSNRNTYLHWYQQKPGQAPRLLIYKVSNRFSGVPDRFSGSGSGTDFTLKISRVEAEDVGVYYCGQGTQVPYTFGQGTKLEIKRTVAAPSVFIFPPSDEQLKSGTASVVCLLNNFYPREAKVQWKVDNALQSGNSQESVTEQDSKDSTYSLSSTLTLSKADYEKHKVYACEVTHQGLSSPVTKSFNRGEC
As for B2, the ECM binding ratio (standard = 1) was 1.6.

B3: TR01H084-E2702GsKsc/GCH065-E2704sEpsc/L0011-k0 (bispecific antibody, human IgG4 S228P, kappa, N297A)
heavy 1: QVQLVESGGGVVQPGGSLRLSCAASGFTFSNAWMHWVRQAPGKGLEWVAQIKDKSQNYATYYAESVKGRFTISRADSKNSIYLQMNSLKTEDTAVYYCRYVHYAAGYGVDIWGQGTTVTVSSASTKGPSVFPLAPCSRSTSESTAALGCLVKDYFPEPVTVSWNSGALTSGVHTFPAVLQSSGLYSLSSVVTVPSSSLGTKTYTCNVDHKPSNTKVDKRVESKYGPPCPPCPAPEFRGGPKVFLFPPKPKDTLMISRTPEVTCVVVDVSQEDPEVQFNWYVDGVEVHNAKTKPREEQFASTYRVVSVLTVLHQDWLNGKEYKCKVSNKGLPSSIEKTISKAKGQPREPQVYTLPPSQKEMTKNQVSLTCLVKGFYPSDIAVEWESNGQPENNYKTTPPVLDSDGSFFLYSKLTVDKSRWQEGNVFSCSVMHEALHNRYTQKSLSLSP
heavy 2: QVQLVQSGAEVKKPGASVTVSCKASGYTFTDYEMHWIRQPPGEGLEWIGAIDGPTPDTAYSEKFKGRVTLTADKSTSTAYMELSSLTSEDTAVYYCTRFYSYTYWGQGTLVTVSSASTKGPSVFPLAPCSRSTSESTAALGCLVKDYFPEPVTVSWNSGALTSGVHTFPAVLQSSGLYSLSSVVTVPSSSLGTQTYTCNVDHKPSNTKVDKRVESKYGPPCPPCPAPEFRGGPKVFLFPPKPKDTLMISRTPEVTCVVVDVSQEDPEVQFNWYVDGVEVHNAKTKPREEQFASTYRVVSVLTVLHQDWLNGKEYKCKVSNKGLPSSIEKTISKAKGQPREPQVYTLPPSQEEMTKNQVSLTCLVKGFYPSDIAVEWESNGQPENNYKTTPPVLDSDGSFFLYSKLTVDKSRWQEGNVFSCSVMHEALHNHYTQESLSLSP
light: DIVMTQSPLSLPVTPGEPASISCRSSQPLVHSNRNTYLHWYQQKPGQAPRLLIYKVSNRFSGVPDRFSGSGSGTDFTLKISRVEAEDVGVYYCGQGTQVPYTFGQGTKLEIKRTVAAPSVFIFPPSDEQLKSGTASVVCLLNNFYPREAKVQWKVDNALQSGNSQESVTEQDSKDSTYSLSSTLTLSKADYEKHKVYACEVTHQGLSSPVTKSFNRGEC
For B3, the ECM binding ratio (standard = 1) turned out to be 1.3.

B4: TR01H082-E2702GsKsc/GCH065-E2704sEpsc/L0011-k0 (bispecific antibody, human IgG4 S228P, kappa, N297A)
heavy 1: QVQLVESGGGLVQPGRSLRLSCAASGFTFSNAWMHWVRQAPGKGLEWVAQIKDKSQNYATYYAESVKGRFTISRDDSKNSLYLQMNSLKTEDTAVYYCRYVHYAAGYGVDAWGQGTTVTVSSASTKGPSVFPLAPCSRSTSESTAALGCLVKDYFPEPVTVSWNSGALTSGVHTFPAVLQSSGLYSLSSVVTVPSSSLGTKTYTCNVDHKPSNTKVDKRVESKYGPPCPPCPAPEFRGGPKVFLFPPKPKDTLMISRTPEVTCVVVDVSQEDPEVQFNWYVDGVEVHNAKTKPREEQFASTYRVVSVLTVLHQDWLNGKEYKCKVSNKGLPSSIEKTISKAKGQPREPQVYTLPPSQKEMTKNQVSLTCLVKGFYPSDIAVEWESNGQPENNYKTTPPVLDSDGSFFLYSKLTVDKSRWQEGNVFSCSVMHEALHNRYTQKSLSLSP
heavy 2: QVQLVQSGAEVKKPGASVTVSCKASGYTFTDYEMHWIRQPPGEGLEWIGAIDGPTPDTAYSEKFKGRVTLTADKSTSTAYMELSSLTSEDTAVYYCTRFYSYTYWGQGTLVTVSSASTKGPSVFPLAPCSRSTSESTAALGCLVKDYFPEPVTVSWNSGALTSGVHTFPAVLQSSGLYSLSSVVTVPSSSLGTQTYTCNVDHKPSNTKVDKRVESKYGPPCPPCPAPEFRGGPKVFLFPPKPKDTLMISRTPEVTCVVVDVSQEDPEVQFNWYVDGVEVHNAKTKPREEQFASTYRVVSVLTVLHQDWLNGKEYKCKVSNKGLPSSIEKTISKAKGQPREPQVYTLPPSQEEMTKNQVSLTCLVKGFYPSDIAVEWESNGQPENNYKTTPPVLDSDGSFFLYSKLTVDKSRWQEGNVFSCSVMHEALHNHYTQESLSLSP
light: DIVMTQSPLSLPVTPGEPASISCRSSQPLVHSNRNTYLHWYQQKPGQAPRLLIYKVSNRFSGVPDRFSGSGSGTDFTLKISRVEAEDVGVYYCGQGTQVPYTFGQGTKLEIKRTVAAPSVFIFPPSDEQLKSGTASVVCLLNNFYPREAKVQWKVDNALQSGNSQESVTEQDSKDSTYSLSSTLTLSKADYEKHKVYACEVTHQGLSSPVTKSFNRGEC
With B4, the ECM binding ratio (standard = 1) is 1.7.

B5: TR01H084-E2702GsKsc/GCH094-E2704sEpsc/L0011-k0 (bispecific antibody, human IgG4 S228P, kappa, N297A)
heavy 1: QVQLVESGGGVVQPGGSLRLSCAASGFTFSNAWMHWVRQAPGKGLEWVAQIKDKSQNYATYYAESVKGRFTISRADSKNSIYLQMNSLKTEDTAVYYCRYVHYAAGYGVDIWGQGTTVTVSSASTKGPSVFPLAPCSRSTSESTAALGCLVKDYFPEPVTVSWNSGALTSGVHTFPAVLQSSGLYSLSSVVTVPSSSLGTKTYTCNVDHKPSNTKVDKRVESKYGPPCPPCPAPEFRGGPKVFLFPPKPKDTLMISRTPEVTCVVVDVSQEDPEVQFNWYVDGVEVHNAKTKPREEQFASTYRVVSVLTVLHQDWLNGKEYKCKVSNKGLPSSIEKTISKAKGQPREPQVYTLPPSQKEMTKNQVSLTCLVKGFYPSDIAVEWESNGQPENNYKTTPPVLDSDGSFFLYSKLTVDKSRWQEGNVFSCSVMHEALHNRYTQKSLSLSP
heavy 2: QVQLVQSGAEVKKPGASVTVSCKASGYTFTDYEMHWVRQAPGEGLEWMGAIDGETPDTAYSEKFKGRVTLTADKSTSTAYMELSSLTSEDTAVYYCTRFYSYTYWGQGTLVTVSSASTKGPSVFPLAPCSRSTSESTAALGCLVKDYFPEPVTVSWNSGALTSGVHTFPAVLQSSGLYSLSSVVTVPSSSLGTQTYTCNVDHKPSNTKVDKRVESKYGPPCPPCPAPEFRGGPKVFLFPPKPKDTLMISRTPEVTCVVVDVSQEDPEVQFNWYVDGVEVHNAKTKPREEQFASTYRVVSVLTVLHQDWLNGKEYKCKVSNKGLPSSIEKTISKAKGQPREPQVYTLPPSQEEMTKNQVSLTCLVKGFYPSDIAVEWESNGQPENNYKTTPPVLDSDGSFFLYSKLTVDKSRWQEGNVFSCSVMHEALHNHYTQESLSLSP
light: DIVMTQSPLSLPVTPGEPASISCRSSQPLVHSNRNTYLHWYQQKPGQAPRLLIYKVSNRFSGVPDRFSGSGSGTDFTLKISRVEAEDVGVYYCGQGTQVPYTFGQGTKLEIKRTVAAPSVFIFPPSDEQLKSGTASVVCLLNNFYPREAKVQWKVDNALQSGNSQESVTEQDSKDSTYSLSSTLTLSKADYEKHKVYACEVTHQGLSSPVTKSFNRGEC
In the case of B5, the ECM binding ratio (standard = 1) stood at 1.2.

Values taken from patent US20210388110A1.
